These are literature values, as cited in paper PMC10967246.

Like-named read-outs stand apart in the source and are kept apart here.

For data set [1], the target named is GluTR (Arabidopsis thaliana) (UniProt P42804).
Data set [2] shares this target. Put plainly: MST.

GluTR (Arabidopsis thaliana), sequence (P42804 62-543): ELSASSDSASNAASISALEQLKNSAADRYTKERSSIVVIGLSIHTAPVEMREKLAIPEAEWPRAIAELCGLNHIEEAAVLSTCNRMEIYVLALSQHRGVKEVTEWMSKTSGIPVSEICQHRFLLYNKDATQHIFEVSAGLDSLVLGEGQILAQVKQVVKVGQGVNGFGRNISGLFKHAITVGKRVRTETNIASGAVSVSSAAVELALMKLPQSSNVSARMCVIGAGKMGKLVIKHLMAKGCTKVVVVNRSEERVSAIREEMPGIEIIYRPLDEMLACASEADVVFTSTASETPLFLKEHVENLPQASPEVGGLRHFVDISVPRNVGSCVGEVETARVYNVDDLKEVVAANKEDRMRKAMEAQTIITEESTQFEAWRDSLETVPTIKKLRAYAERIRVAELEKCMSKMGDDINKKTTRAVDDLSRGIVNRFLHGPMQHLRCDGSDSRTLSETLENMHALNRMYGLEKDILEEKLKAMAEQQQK
GBP, sequence (Q9LU39 43-317): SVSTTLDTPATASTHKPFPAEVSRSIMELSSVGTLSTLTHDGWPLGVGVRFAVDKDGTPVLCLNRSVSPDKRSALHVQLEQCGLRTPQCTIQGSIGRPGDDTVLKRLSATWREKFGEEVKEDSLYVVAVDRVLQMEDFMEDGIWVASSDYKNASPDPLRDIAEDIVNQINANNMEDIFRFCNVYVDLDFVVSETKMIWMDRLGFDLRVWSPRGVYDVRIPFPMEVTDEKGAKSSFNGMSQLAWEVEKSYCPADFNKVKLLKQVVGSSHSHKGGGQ
FLU TPR domain, sequence (Q940U6 203-316): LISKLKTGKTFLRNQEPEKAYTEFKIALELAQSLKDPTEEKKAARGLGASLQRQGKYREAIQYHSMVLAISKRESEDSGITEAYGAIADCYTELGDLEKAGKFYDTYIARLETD

Broadly, the Kd is a measure of binding affinity in units of concentration. Regarding FLU TPR domain (from UniProt Q940U6), in data set [1], the Kd was 475 nM.

As for GBP (from UniProt Q9LU39), the Kd in data set [2] was 42 nM.
